The record followed here is patent US9394371B2, “Antibody-mediated disruption of quorum sensing in bacteria” (The Scripps Research Institute, priority 2007, dated 2016).

One data set has as its target AIP-3. The data set is described as follows: Competition ELISA (free native AIP against hapten-BSA coated plates). The class given is binding, S. aureus. The procedure:
(§1) The optimal concentrations of the AP4-BSA conjugate as well as of each mAb were determined. 96 well ELISA plates were coated with the appropriate amount of AP4-BSA conjugate respectively. The plates were blocked with 4% skim milk, washed and mAbs were added at the predetermined optimal concentration. The plates were washed and free antigen, i.e. the native AIPs 1-4, was added to the wells in a concentration series starting at 100 μM. The plate was incubated for 1 hour at 37° C., thoroughly washed, and goat anti-mouse-horseradish peroxidase (HRP) conjugate (Pierce, Rockford, Ill.) was added. After an incubation period of 1 hour at RT, the plate was thoroughly washed again and the HRP substrate (TMB substrate kit; Pierce) was added, the reaction was allowed to develop for 15 minute and stopped by the addition of 2 M H2SO4. The absorbance at 450 nm was read and the values plotted using GraFit (Erithacus Software Ltd). The free antigen concentration at which the absorbance value is 50% of the maximum absorbance was considered the Kd of the antibody for its antigen.
as §1, with “For the competition ELISA analysis, the optimal concentrations” for “The optimal concentrations”, “of the AP1-BSA, AP3-BSA, or AP4-BSA conjugate,” for “of the AP4-BSA conjugate”, “or AP4-BSA conjugate, as well” for “the AP4-BSA conjugate as well”, “amount of AP1-BSA, AP3-BSA, or AP4-BSA conjugate” for “amount of AP4-BSA conjugate”, “blocked with 4 v % skim milk,” for “blocked with 4% skim milk,”, “for 15 minutes and stopped” for “for 15 minute and stopped”
A general note: ELISA stands for enzyme-linked immunosorbent assay.

The target in the next data set is AIP-4. The description is as above. The class given is binding, S. aureus. The procedure: as §1
as §1, with “For the competition ELISA analysis, the optimal concentrations” for “The optimal concentrations”, “of the AP1-BSA, AP3-BSA, or AP4-BSA conjugate,” for “of the AP4-BSA conjugate”, “or AP4-BSA conjugate, as well” for “the AP4-BSA conjugate as well”, “amount of AP1-BSA, AP3-BSA, or AP4-BSA conjugate” for “amount of AP4-BSA conjugate”, “blocked with 4 v % skim milk,” for “blocked with 4% skim milk,”, “for 15 minutes and stopped” for “for 15 minute and stopped”

The next data set deals with AIP-2. The description is as above. The format is binding, S. aureus. Conditions: AP4-BSA coated plates.
Another data set has as its target AIP-1. The description is as above. The format is binding, S. aureus. The note with it: AP4-BSA coated plates.
The subject of data set [1] is S. aureus RN4850. The class given is cell-based.
Data set [2] has as its system agr QS system in S. aureus RN4850. The class given is cell-based.
Data set [3] has as its system S. aureus RN4850. The class given is cell-based. Conditions: FIG. 3B.
Data set [4] deals with S. aureus RN4850. Description: Passive immunization against lethal S. aureus challenge. The note with it: antibody i.p. 2 hours before 3×10^8 S. aureus RN4850 i.p.; FIG. 8. The format is in vivo, SKH1 mice. The protocol: FIG. 8 illustrate survival data obtained from passive immunization of mice with AP4-24H11 against S. aureus infection. […] The numbers in parenthesis show number of survivors/number per group. The log rank statistic, p=0.001; n=6 for each group.
S. aureus RN4850 were stored at −80° C. in 20% glycerol/BHI medium, thawed and grown on BHI-agar plates overnight, and three separate colonies sampled to inoculate 2 mL CYGP medium. The inoculum culture was maintained 1 hour at 35° C. without shaking, followed by shaking at 200 rpm for 3 hours. Aliquots of the freshly grown inoculum culture were transferred to 5 mL CYGP medium in 50 mL conical polypropylene tubes (1/20 dilution) followed by shaking at 200 rpm, 35° C. for 3 hours. The bacteria were pelleted by centrifugation at 3,000 rpm (1300×G) for 10 minutes, 4° C. […]
Mab AP4-24H11, isotype-matched control IgG (1 mg each) or DPBS was administered i.p. in DPBS to SKH1 mice (6-9 weeks old; 6 animals per treatment group) followed two hours later by 0.5 mL DPBS^− i.p. containing 3×10^8 S. aureus. The mice were monitored several times on the day of injection and twice each day on subsequent days, observing ambulation, alertness, response to handling and skin temperature measured by infrared thermometry (Raytek MiniTemp MT4) using a 1 cm diameter infrasternal skin site. […]

Data set [5] relates to S. aureus RN4850. The data set is described as follows: Static biofilm analysis (crystal violet). The format is cell-based. The note with it: antibody 0.2 mg/mL, FIG. 4C.
The test system of a further data set is Jurkat cells. The data set is described as follows: S. aureus supernatant-induced PARP cleavage (apoptosis), Western blot. The format is cell-based, Human. The note with it: 4 hours, FIG. 5. Background: Immunoblotting shows a protein as a band on a membrane.
In data set [6] the test system is S. aureus RN4850. Description: Dermal infection model in mice (abscess formation). Conditions: for S. aureus-induced skin injury: flank injection.
Protocol: Additional control animals received 200 μL intradermal injections containing Cytodex beads or beads plus antibody. After injections were made the mice were monitored at least three times each day over a period of 4-7 days. At the conclusion of the monitoring period the mice were euthanized and tissues harvested for bacteriologic and histologic analysis.
SKH1 euthymic hairless mice, 6-8 weeks old were obtained from Charles River Laboratories and housed in the biocontainment vivarium for one week before use in experiments. […] Cytodex 1 beads (GE Healthcare 17-0448-01) were suspended (1 gram in 50 mL) in Dulbecco's Phosphate Buffered Saline without calcium/magnesium (Gibco) overnight at 20° C. The supernatant was decanted and the beads washed three times by suspension in DPBS and 1 G sedimentation followed by autoclaving (121° C., 15 psi, 15 minutes). Staphylococcus aureus RN4850 (AIP4) was grown from frozen stock (BHI+20% glycerol) on brain heart infusion agar plates 35° C. overnight. Three representative colonies were combined to inoculate 2 mL CYGP broth, and after overnight incubation without shaking, 0.25 mL of the culture was used to inoculate 5 mL of CYGP followed by incubation at 35° C., 200 rpm for 3 hours. The culture was centrifuged 1,300×G at 4° C. for 20 minutes, the supernatant poured off, and the bacterial pellet was suspended in 1 mL DPBS without calcium/magnesium. The SKH1 received 200 μL intradermal flank injections containing S. aureus (1×10^7 or 1×10^8 bacteria), 4 μL packed volume Cytodex beads, DPBS, anti-AIP4 antibody or control IgG (0.6 or 0.06 mg). Additional control animals received 200 μL intradermal injections containing Cytodex beads or beads plus antibody. After injections were made the mice were monitored at least three times each day over a period of 4-7 days. At the conclusion of the monitoring period the mice were euthanized and tissues harvested for bacteriologic and histologic analysis.
Subcutaneous injections of bacterial suspension or vehicle control were made in the flank of SKH1 hairless mice followed by close monitoring over seven days.
Data set [7] concerns S. aureus RN4850, NRS168 and Wood 46. The format is cell-based. The note with it: 24-hour growth period; FIG. 4B.
For a further data set, the system named is S. aureus Wood 46. The format is cell-based.
Where [8] appears, read: selected AP4 mAbs, average of at least two measurements, read-out: Binding constant, AIP-3.
Setting [9] is: AP4 Sups, AP4-BSA coated plates, competing hybridomas re-tested, average, read-out: AIP4 wt.
[10] abbreviates: selected AP4 mAbs, AP4-BSA coated plates, average of at least two measurements, read-out: Binding constant, AIP-4.
Setting [11] is: selected AP4 mAbs, average of at least two measurements, read-out: Binding constant, AIP-2.
The mark [12] stands for this setting: AP4 Sups, competing hybridomas re-tested, average, read-out: AIP1 wt.
Where [13] appears, read: selected AP4 mAbs, average of at least two measurements, read-out: Binding constant, AIP-1.

Where two headings read alike, the source gives them in different places.

B1: AP4-29E10: murine monoclonal antibody raised against AP4 lactone hapten (antibody, V domains shown)
VH: EVQLQQSGPELEKPGASVKISCKASGHSFTGYNMNWVKQSNDKSLEWIGNIAPYYGVTAYNQKFKGKATLTGDKSSSTAYMQLKSLASEDSAVYYCVLDTSGYASWGQGTLVTVSA
VL: DIVMTQATASLTVSLGQRATISCRASKSVSTSGYSYMHWYQQKPGQPPKLLIYLASNLESGVPARFSGSGSGTDFTLNIHPVEEEDAATYYCQHSREVPYTFGGGTKLELK
On to B1, for which the Kd on AIP-3 (AP4 Sups, read-out: AIP3 wt) is above 25000 nM; on AIP-3 (setting [8]), above 25000 nM; on AIP-4 (setting [9]), around 24 nM; at AIP-4 (AP4 Sups, tested 5 different times, read-out: AIP4 Kd, variability over 5 different tests), 2 to 110 nM; on AIP-4 (setting [10]), around 24 nM; on AIP-2 (AP4 Sups, read-out: AIP2 wt) it was above 25000 nM. Further, the results for the Kd at AIP-2 (setting [11]), on AIP-1 (setting [12]) and at AIP-1 (setting [13]) were above 25000 nM, around 3000 nM and around 3000 nM, respectively.

B2: AP4-4-20: anti-AIP4 human scFv from phage display, expressed in E. coli; probably AP4-20, SEQ ID NO: 53 (protein, listed as Homo sapiens)
scFv: QVQLQQSGAGLLRPSETLSLTCGLYGGSFSGHYWNWIRQSPEKGLVWIGEITHSGTTNYNPSLKSRVITSVDTSKNQYSLKLSFVTPADTAVYYCARGDYYGYWYFDLWGRGTLVTVSSGGGGSGGGGSGGGGSQSVLTQPPSVPVAPGQKVTISCSGSSSNIGNNYVSWYQQLPGTAPKLLIYDTNKRPSGIPDRFAGSKSGTSATLGITGLQTGDEADYYCGTWDSSLSAGVFGGGTKLTVL
For the molecule B2, the “hemolysins secretion (α-hemolysin western analysis)” value in the data set on S. aureus RN4850 [1] is “clear reduction in hemolysins secretion”.

B3: AP4-24H11: murine anti-AIP-4 monoclonal antibody; VH SEQ ID NO: 20, VL SEQ ID NO: 148 (antibody, V domains shown)
VH: EVKPQESGPGLVKPSQSLSLTCTVTGYSITSNYAWNWIRQFPGNKLEWMGFISSYGTTTYNPSLKSRFSITRDTSKNQFFLQLHSVTIEDTGTYFCTREGDYWGQGTTLTVSS
VL: DIVMTQATLSLPVSLGDQASISCRSSQRLVPSNGNIYLHWFLQKPGQSPKLLIYKLSSRFSGVPDRFSGSGSGTDFTLKISRVESEDLGIYFCSQTTHVPYTFGGGTKLEIK
modifications: Murine
As to B3, the Kd on AIP-3 (AP4 Sups, read-out: AIP3 wt) was above 25000 nM. The Kd at AIP-3 (setting [8]) was above 25000 nM. In addition, the Kd on AIP-4 (setting [9]) is around 98 nM. For the same molecule, the Kd on AIP-4 (setting [10]) was around 90 nM. In data set [2], the “eta mRNA fold-change” value is reported as −8.1±1 fold, the “hla mRNA fold-change” value is listed as −5.2±3.1 fold, the “rnaIII mRNA fold-change” value is −77±48 fold and the “saeR mRNA fold-change” value was “+1.4±0.4 fold”. Further, in [2], the “sarA mRNA fold-change” value was −2.1±0.6 fold and the “spa mRNA fold-change” value is recorded as “+5.7±3.6 fold”. Also, in data set [2] (RN4850), the “decrease of eta transcription” value was “≈ 10 fold”, the “elevation of spa transcription” value lay in the range of 3 to 5 fold and the “suppression of hla transcription” value is given as 3 to 5 fold. The “reduction of rnaIII transcriptional level” value in data set [2] (RN4850, stationary growth phase) is above 50 fold. Also, in data set [2] (RN4850, no significant changes), the “change in saeR transcription” value is recorded as at most 2 fold and the “change in sarA transcription” value is on record as at most 2 fold. Further, the “hemolytic activity of treated supernatant on blood agar plates” value in the data set on S. aureus RN4850 [3] was “no hemolytic activity was observed”. In the data set on S. aureus RN4850 [4], the “survivors/number per group through the 8-day observation period” value is 6/6. Moreover, in the data set with S. aureus RN4850 [1], the “exoprotein expression/secretion (SDS-PAGE)” value is reported as “affects the expression and/or secretion of S. aureus exoproteins” and the “hemolysins secretion (α-hemolysin western analysis)” value was “clear reduction in hemolysins secretion”. In the data set on S. aureus RN4850 [1] (20-24 hours), the “protein A expression (Western blot)” value is on record as “significantly increased” and the “α-hemolysin expression (Western blot)” value was “reduce the α-hemolysin expression”. On AIP-2 (AP4 Sups, read-out: AIP2 wt), the Kd was above 25000 nM. The Kd on AIP-2 (setting [11]) is above 25000 nM. Moreover, the Kd on AIP-1 (setting [12]) was around 5000 nM. Further, at AIP-1 (setting [13]), the Kd was around 5000 nM. Also, in the data set with S. aureus RN4850 [5], the static biofilm formation result is “increased biofilm formation”. Also, the “PARP cleavage induced by RN4850 supernatant” value in the data set with Jurkat cells (supernatant (1%) of culture grown with antibody) is “prevented RN4850 supernatant (1%)-induced PARP cleavage”. In the data set with Jurkat cells (supernatant of culture grown with antibody), the “PARP cleavage induced by Wood 46 supernatant” value is “partially inhibited the effect of Wood 46 supernatant”. The “condition of mice injected with PBS/Cytodex containing antibody, no bacteria” value in the data set with S. aureus RN4850 [6] (0.6 mg antibody, occasional local induration, FIG. 7D) is recorded as “remained normal”. The “S. aureus-induced skin injury” value in the data set on S. aureus RN4850 [6] (10^8 bacteria with 0.06 mg antibody) is listed as “not protective”. For the same molecule, the “S. aureus-induced skin injury” value in the data set on S. aureus RN4850 [6] (10^8 bacteria with 0.6 mg antibody, 7 day observation) is recorded as “skin injury was abrogated”. Besides, in data set [7], the “growth of S. aureus in presence of antibody” value is “no significant growth changes”. In the data set with S. aureus Wood 46, the “α-hemolysin production (Western blot)” value was “notable decrease in α-hemolysin production”.
